Results from patent US20170305997A1 (Janssen / Centocor, published 2017).

B1: P114AR5P74-A5 (designed binder)
chain: LPAPKNLVVSRVTEDSARLSWTAPDAAFDSFWIRYDEVVVGGEAIVLTVPGSERSYDLTGLKPGTEYYVNILGVKGGSISVPLSAIFTTHHHHHH
B2: A3 F38S (designed binder)
chain: LPAPKNLVVSEVTEDSARLSWDDPWAFYESFLIQYQESEKVGEAIVLTVPGSERSYDLTGLKPGTEYTVSIYGVHNVYKDTNMRGLPLSAIFTTAPAPAPAPAPLPAPKNLVVSRVTEDSARLSWTAPDAAFDSFWIRYFESLGSGEAIVLTVPGSERSYDLTGLKPGTEYVVNIMGVKGGKISPPLSAIFTT

Tests used:
human c-Met on cells [1] = target: T1, human c-Met on cells (human, UniProt P08581 25-1390); test: binding to NCI-H441 cells, anti-His fluorescence
T1 construct: Endogenous c-Met of human tumour cell lines; also called NCI-H441 cells; U87-MG
Protocol: Purified FN3 domains (50 μL/well; 0 to 1000 nM) were added to the cells for 1 hour at 4° C. in duplicate plates. […] Cells were incubated with biotinylated-anti HIS antibody (diluted 1:160 in FACS stain buffer, 50 μL/well, R&D Systems, cat # BAM050) for 30 minutes at 4° C. […] Cells were washed three times with FACS stain buffer (150 μL/well) and left in FACS stain buffer (50 μL/well).

human c-Met on cells [2] = target: T1, human c-Met on cells; test: cell-based or functional assay
human c-Met on cells [3] = target: T1, human c-Met on cells; test: cell-based or functional assay; remark: listed apart in the source
human c-Met on cells [4] = target: T1, human c-Met on cells; test: cell-based or functional assay; remark: listed apart in the source
[5] = target: Recombinant human c-Met Fc chimera (human) (UniProt P08581); test: SPR, serine scan in the ECB15 context

Binder | EC50 (human c-Met on cells [1]) [µM] | inhibition of c-Met phosphorylation in NCI-H292 cells (IC50) (human c-Met on cells [2]) [µM] | IC50 (nM) (ERK phosphorylation) (human c-Met on cells [3]) | Inhibition of Proliferation of U87-MG cells (IC50) (human c-Met on cells [4]) [µM] | pMet inhibition in H441 cells (IC50) (human c-Met on cells [4]) [nM] | Fold Change of KD against the parent [5] [fold]
B1 | 0.0187 | 0.61 | 2370 | 0.464 | 1080 | 
B2 |  |  |  |  |  | 1790
